Laboratory results taken from patent US12194057B2, “NXTAR-derived oligonucleotides and uses thereof” (Washington University, priority 2020, dated 2025).

Assays:
[1] = tested on: VCaP cells; experiment: Xenograft of VCaP cells infected with pBABE vector or NXTAR in SCID mice; type: in vivo
Procedure: All animal experiments were performed using the standards for humane care in accordance with the National Institutes of Health Guide for the Care and Use of Laboratory Animals. Mice breeding and colony maintenance were performed according to IACUC protocols approved by Washington University in St. Louis. 1.5×10^6 VCaP cells were suspended in 200 μL of PBS with 50% Matrigel (Corning, Cat #354428) and implanted subcutaneously into the dorsal flank of castrated 6-week-old male SCID mice (Charles River, Strain code: 236). Once the tumors reached approximately 100 mm^3, mice were randomized and injected subcutaneously with (R)-9b mesylate salt suspended in 6% Captisol (Cydex Pharmaceuticals). Tumor volumes were measured twice weekly using calipers. At the end of the study, all mice were humanely euthanized and tumors were extracted and weighed. To assess the role of NXTAR in tumor growth, 1.5×10^6 VCaP cells that were either infected with pBABE vector or NXTAR and selected with puromycin (Gibco, Cat #A1113803), implanted and growth of tumors was recorded. The personnel taking tumor volume measurement were blinded for the treatment groups.
To examine the direct effect of NXTAR restoration on prostate tumor growth, equal numbers of VCaP infected with either pBABE vector or NXTAR constructs were injected in the SCID mice. Palpable tumors were formed around week 5 that were measured twice a week thereafter.

[2] = tested on: AR promoter; experiment: ChIP-qPCR (EZH2, H3K27me3) at AR promoter; type: cell-based, human
Procedure: Chromatin immunoprecipitation (ChIP), quantitative RT-PCR, and ChIP-qPCR were performed as described earlier (see e.g., Mahajan et al. (2017) Cancer Cell; Mahajan et al. (2012) J Biol Chem; and Mahajan et al. (2012) Nat Struct Mol Bio). Briefly, cells were either transfected, infected or treated with various inhibitors (R)-9b; CPTH2 (Sigma, Cat #C9873)], fixed in formaldehyde, lysed and ChIP was performed with antibodies recognizing AR (SCBT, sc-7305; RRID:AB_626671), GCN5 (SCBT, SC-365321; RRID:AB_10846182), H3K14ac (CST, 7627S; RRID:AB_10839410), H3K27me3 (CST, 9733S; RRID:AB 2616029), NCOR1 (Bethyl Laboratories, Cat #A301-145A; RRID:AB_873085), EZH2 (CST, 5246S; RRID:AB_10694683), or IgG (Abcam, ab2410; RRID:AB_303052), immobilized on Protein A magnetic beads (Biorad, Cat #161-4013). The complexes were washed with ChIP buffers, eluted with elution buffer (Active Motif, Cat #53008), and subjected to reverse crosslinking, followed by RNase and proteinase K treatments. A part of soluble chromatin was processed separately at the same time and designated as input DNA. Treated ChIP DNA and input DNAs were purified using PCR-DNA purification columns (Qiagen, Cat #28106). The amount of immunoprecipitated DNA was determined by real-time PCR.

B1: NXTAR: long non-coding RNA, 1476-nt transcript (SEQ ID NO: 58), expressed from retroviral or plasmid constructs (nucleic acid, listed as Homo sapiens)
chain: GGAAAAGGAAGGCTGCACAGAAGAACTGGCATTTGTGTTCTGCCTACAAAGCTGAAAAGGATTTCACCCAAATCAGGGAAGATCAGCCTTATGAGGTGGATATTATTGCCACAATAATTTTCCAGATGAAAAATGGAGGCCCAGAGATGTTAAGGAATTTGCCCAAGATCATGAAAAGACACTCTCCCCTATTGAGATGTCATGCAAGGATCAGTGCTGTGTGAAAATCCACATGAAGCAGGAAATGCAGGTGGTGGTGTCCAATCTGATTTCAAGATCTGAGAAGCTGTGCACTGCCTGAAAGGTATCTATTTAAGGTGTCACCAGACTCCTGCTCCACTCCTGCCCAAGGCCCAGCCCATCCAAGAGCAAAAGGCAAGTGGTGTTACAACCTTGGGATTTCCTGTATCTGCCCTCTTGCGGATAGCAGGACAGAGTCACAGCTGCATTAAATTCGCTTAAGACTTATTGAGACACTTCAACACTTCAACAACGACCTGTGAGATTAAGATTATTATTTTAAATTTACAGAAGGGGAAACTAAGAATTATAGACATGAAGTGACTCACCTATGACCACCTGGTGATAGAACCAGGACTAGAGCTCAGGTATGAAGATTTCTGGGGGAGTCCCTGAAAAAAAGGCTCCATATGGAATTACAATGTGGAAAAGGCCAAGGCCTCACCAACCCTTTTCTCTTCAACACCTGGATCCCTAAGTCCTTATTCGTAACCTCCTCTTTGGACAAGGTTTTGGTAGACAAAGCCAGAGCCTCTTGCACTGAGAAAGACAAATTCTCCTCTTGCAGTGAACCACAGGTAAATGCTCCAATAGAGAGTCCAAGCCAAACCTCCGGGTGTTATTCATGACCCAGGCAAGTCTGCTTTCTCATTCCCCCTATCTCTAGACCGTTTTCCATTTGGGCTTCCTTTTCTTCTTTTATCCTCAAAGAAACATGTTTCCTTCTAGTAGGTTTGGCTGCCACCACTAGGGTCCTGGCTACAACTGGCCCTCAGGTAACTCTCTCACCTCTGAGTTGGATAGTATCCTCTCTCGTCCCCATACACAAGTGTTTCTCTTCCCAGACACCTTCCTTACACAATTTCCCATTTCTTTCTCATCTCACCCTTGCTTTAATCAACATAGTTCTTTCCCCTGAGATTACTCTTCAGCCTTTCTTGTTGAAGCACTGCCCAGTGGTTCTCTTGGGATTTCCATTTCTCTCCCCTCAGCTCTCTTGGTACCAAATTCTGTAAGCTTCTCTGGTTTTTGGTTTCTCTTCCTTCTTTTCCTTCCAGGCAACATTTACTCAATCTAGGCTTGGATGATCAGGTACTTCTGCCAGCCTGCCCACTAGGGAACTCTGGGCTAGGAATATGTCTCAATGGCACCATTATATTTGGAAGGACGCTTCTGTATTTACACTGAACACACTAAAATACTAAACTTGAAGCCAAAATCCCCTCTCTGGCTCCA
[1]; NXTAR overexpressing vs vector-expressing VCaP cells
  tumor growth: significant reduction in tumor growth
[1]; immunoblotting of tumor lysates
  AR protein levels in tumors: significant reduction in AR protein levels
[1]; tumor weights and volume
  tumor burden: significantly reduced
[2]; LNCaP cells overexpressing NXTAR
  EZH2 binding at the AR promoter: significant binding
[2]; LNCaP, 22Rv1 and VCaP cells, NXTAR restoration
  deposition of H3K27me3 marks in the AR promoter: significant increase in deposition of H3K27me3 marks
